# Test results reported in patent US20250333760A1, “TEMPERATURE-SENSITIVE NEGATIVE-STRAND RNA VIRUS OR VIRUS VECTOR AND RNA GENOME THEREOF” (REPLI-TECH CO., LTD., priority 2021, published 2025).
# Tested on: HeLa cells
# Test: Relative fluorescence intensity of EmGFP having degron (DD tag and mutants) added, expressed from SeV in HeLa cells
# Assay type: cell-based
# Settings: for Relative fluorescence intensity of EmGFP having degron added thereto, Shield1: 1 μM of Shield-1; for Relative fluorescence intensity of EmGFP having degron added thereto, Shield1 / Relative fluorescence intensity of EmGFP having degron added thereto, dTAG-13 / Relative fluorescence intensity of EmGFP having degron added thereto, (—): 3 days after infection, MOI=10; for Relative fluorescence intensity of EmGFP having degron added thereto, dTAG-13: 5 μM of dTAG-13; for Relative fluorescence intensity of EmGFP having degron added thereto, (—): no Shield-1 or dTAG-13; for Shield1/(—) / Shield1/dTAG-13: ratio of relative fluorescence intensities
# Source text: The addition of a proteolytic tag (degron) to a P protein can facilitate the elimination of a SeV. A DD tag is a type of proteolytic tag (see, for example, US 2009/0215169 A). The DD tag (see SEQ ID NO: 18) is a protein of 107 amino acids in length, obtained by introducing F36V and L106P into FKBP12. Adding a low molecular weight compound, Shield-1 provides stabilization, and adding dTAG-13 also promotes degradation of the protein fused with the tag. In the present Example, a DD mutant (DDm; see SEQ ID NO: 19) having 11 mutations (4I, 18K, 36L, 501, 57K, 59F, 63A, 68L, 90V, 981, and 105R) in a DD tag was constructed. In the present Example, in order to investigate the proteolysis-promoting effect of the DDm, the DD tag and its mutants (including the DDm) were added to EmGFP at its C-terminal and loaded at the + position of the SeV vector (having the above mutation described in WO 2003/025570). HeLa cells were infected with the resulting SeV (MOI=10). On the day after infection, 1 μM of Shield-1 or 5 μM of dTAG-13 was added thereto, and the fluorescence from the cell was observed 3 days after infection. When a DDrs tag having the amino acid sequence set forth in SEQ ID NO: 28 was constructed and added to EmGFP at its C-terminal, the effect of stabilizing EmGFP by Sheild-1 was not obtained and the fluorescence intensity was only about 20% of that of a DD-tagged EmGFP (FIG. 8).
molecule,measurement,setting,value
DDm (protein) GVQIETISPGDGRTFPKKGQTCVVHYTGMLEDGKKLDSSRDRNKPFKFMIGKQEVIKGFEEGAAQMSLGQRAKLTISPDYAYGATGHPGVIPPHATLIFDVELLRPE,"Relative fluorescence intensity of EmGFP having degron added thereto, Shield1",37° C.,140.4%
same,"Relative fluorescence intensity of EmGFP having degron added thereto, dTAG-13",37° C.,0.478%
same,"Relative fluorescence intensity of EmGFP having degron added thereto, (—)",37° C.,15.0%
same,Shield1/(—),37° C.,9.39
same,Shield1/dTAG-13,37° C.,293.9
same,"Relative fluorescence intensity of EmGFP having degron added thereto, Shield1",38.5° C.,153%
same,"Relative fluorescence intensity of EmGFP having degron added thereto, dTAG-13",38.5° C.,0.05%
same,"Relative fluorescence intensity of EmGFP having degron added thereto, (—)",38.5° C.,2.5%
same,Shield1/(—),38.5° C.,61.47
same,Shield1/dTAG-13,38.5° C.,3181.7
same,ratio of Shield1/dTAG-13 (in words),"Tables 6 and 7, 37° C. and 38.5° C.",significantly improved
